Results: publication PMC9668737, “Herpes simplex virus 1 protein pUL21 alters ceramide metabolism by activating the interorganelle transport protein CERT” (The Journal of Biological Chemistry, 2022)
Numbering of substitutions follows the chain as printed. Names and notes keep the numbering of the source. Values joined by “and” are separate entries in the source; they are usually repeats but may differ in a detail not shown here. Equal values may be shown once.

B1: pUL21-H6 (HSV-1 pUL21) (natural protein)
chain: MELSYATTMHYRDVVFYVTTDRNRAYFVCGGCVYSVGRPCASQPGEIAKFGLVVRGTGPDDRVVANYVRSELRQRGLQDVRPIGEDEVFLDSVCLLNPNVSSELDVINTNDVEVLDECLAEYCTSLRTSPGVLISGLRVRAQDRIIELFEHPTIVNVSSHFVYTPSPYVFALAQAHLPRLPSSLEALVSGLFDGIPAPRQPLDAHNPRTDVVITGRRAPRPIAGSGAGSGGAGAKRATVSEFVQVKHIDRVGPAGVSPAPPPNNTDSSSLVPGAQDSAPPGPTLRELWWVFYAADRALEEPRADSGLTREEVRAVRGFREQAWKLFGSAGAPRAFIGAALGLSPLQKLAVYYYIIHRERRLSPFPALVRLVGRYTQRHGLYVPRPDDPVLADAINGLFRDALAAGTTAEQLLMFDLLPPKDVPVGSDVQADSTALLRFIESQRLAVPGGVISPEHVAYLGAFLSVLYAGRGRMSAATHTARLTGVTSLVLAVGDVDRLSAFDRGAAGAASRTRAAGYLDVLLTVRLARSQHGQSV
notes: tegument protein pUL21 of herpes simplex virus 1, UniProt F8RG07; source: E. coli T7 Express lysY/Iq, purified (Ni-NTA, SEC); not shown: His6, C-terminal, kept
B2: StrepII-CERTL^P (hyperphosphorylated StrepII-tagged CERTL) (natural protein, human, UniProt Q9Y5P4-1 1-624, looked up)
chain: MSDNQSWNSSGSEEDPETESGPPVERCGVLSKWTNYIHGWQDRWVVLKNNALSYYKSEDETEYGCRGSICLSKAVITPHDFDECRFDISVNDSVWYLRAQDPDHRQQWIDAIEQHKTESGYGSESSLRRHGSMVSLVSGASGYSATSTSSFKKGHSLREKLAEMETFRDILCRQVDTLQKYFDACADAVSKDELQRDKVVEDDEDDFPTTRSDGDFLHSTNGNKEKLFPHVTPKGINGIDFKGEAITFKATTAGILATLSHCIELMVKREDSWQKRLDKETEKKRRTEEAYKNAMTELKKKSHFGGPDYEEGPNSLINEEEFFDAVEAALDRQDKIEEQSQSEKVRLHWPTSLPSGDAFSSVGTHRFVQKPYSRSSSMSSIDLVSASDDVHRFSSQVEEMVQNHMTYSLQDVGGDANWQLVVEEGEMKVYRREVEENGIVLDPLKATHAVKGVTGHEVCNYFWNVDVRNDWETTIENFHVVETLADNAIIIYQTHKRVWPASQRDVLYLSVIRKIPALTENDPETWIVCNFSVDHDSAPLNNRCVRAKINVAMICQTLVSPPEGNQEISRDNILCKITYVANVNPGGWAPASVLRAVAKREYPKFLKRFTSYVQEKTAGKPILF
modifications: hyperphosphorylated (sites not given)
notes: human CERTL, UniProt Q9Y5P4-1, synthetic gene; Trimer by SEC-MALS (observed 184.3 kDa, expected 215.7 kDa); not shown: StrepII, N-terminal, kept
B3: StrepII-CERTL^S132A (natural protein, human, UniProt Q9Y5P4-1 1-624, looked up)
chain: B2 chain with S132A
modifications: hypophosphorylated
notes: human CERTL, UniProt Q9Y5P4-1, synthetic gene, S132A; Trimer by SEC-MALS (observed 199.2 kDa); also called constitutively hypophosphorylated form of CERTL; source: Freestyle 293F, stably transfected, doxycycline-induced, purified (StrepTrap HP, Superose 6 SEC); not shown: StrepII, N-terminal, kept
B4: H6-pUL21C (domain or fragment)
chain: QDSAPPGPTLRELWWVFYAADRALEEPRADSGLTREEVRAVRGFREQAWKLFGSAGAPRAFIGAALGLSPLQKLAVYYYIIHRERRLSPFPALVRLVGRYTQRHGLYVPRPDDPVLADAINGLFRDALAAGTTAEQLLMFDLLPPKDVPVGSDVQADSTALLRFIESQRLAVPGGVISPEHVAYLGAFLSVLYAGRGRMSAATHTARLTGVTSLVLAVGDVDRLSAFDRGAAGAASRTRAAGYLDVLLTVRLARSQHGQSV
notes: HSV-1 pUL21 C-terminal domain, amino acids 275-535, UniProt F8RG07; Cloned in pOPTH; Monomer by SEC-MALS and SAXS; also called C-terminal domain of pUL21; source: E. coli T7 Express lysY/Iq, purified (Ni-NTA, SEC); not shown: MAH6, N-terminal, kept

How the values were obtained:
[1] = target: CERTL (CERT, long isoform) (UniProt Q9Y5P4); assay: SEC-MALS of self-association; conditions: reference: wild-type CERTL, hyperphosphorylated (CERTLP); sites S132
[2] = target: T1, StrepII-CERTL^P (hyperphosphorylated human CERTL) (human, UniProt Q9Y5P4-1 1-624, hyperphosphorylated (CERTL^P); sites not given); assay: ITC; CERTL forms in the syringe titrated into pUL21 forms in the cell; 25 °C; 20 mM Tris pH 8.5, 500 mM NaCl, 0.5 mM TCEP; one-site binding model; single titrations; conditions: both partners purified
T1 construct: ceramide transport protein CERT, longer cytoplasmic isoform CERTL (with exon 11), human, UniProt Q9Y5P4-1; not shown: StrepII, N-terminal, kept
T1 sequence (looked up): B2 chain

[3] = target: T2, StrepII-CERTL^S132A (constitutively hypophosphorylated human CERTL) (human, UniProt Q9Y5P4-1 1-624, S132A); assay: as above; conditions: both partners purified
T2 construct: ceramide transport protein CERT, longer cytoplasmic isoform CERTL, human, UniProt Q9Y5P4-1, with S132A; source: Freestyle 293F cells, stably transfected, doxycycline-induced, purified (StrepTrap, SEC); not shown: StrepII, N-terminal, kept
T2 sequence (looked up): B2 chain with S132A

[4] = target: the molecule itself; assay: SEC-MALS; Superose 6 increase 10/300 GL; 20 mM Tris pH 8.5, 500 mM NaCl, 0.5 mM TCEP; samples injected at 2 mg/ml
pUL21-H6 = target: T3, pUL21-H6 (herpes simplex virus 1 (HSV-1), UniProt F8RG07 1-535); assay: ITC; 25 °C; 20 mM Tris pH 8.5, 500 mM NaCl, 0.5 mM TCEP; CERTL forms in the syringe titrated into pUL21 forms in the cell; one-site binding model; conditions: both partners purified
T3 construct: HSV-1 pUL21, UniProt F8RG07; some paragraphs print H6-pUL21; also called H6-pUL21; WT pUL21; source: E. coli T7 Express lysY/Iq, purified (Ni-NTA, SEC); not shown: His6, C-terminal, kept
T3 sequence: B1 chain

H6-miniCERTL = target: T4, H6-miniCERTL (human, UniProt Q9Y5P4-1 20-624, residues 20–131 plus 351–624 (MR residues 132 to 350 excluded)); assay: as above; conditions: both partners purified
T4 construct: human CERTL, UniProt Q9Y5P4-1, residues 20-131 plus 351-624 (PH and STARTL domains joined by a retained 23 amino acid stretch of the middle region); Cloned into pOPTH; Monomer by SEC-MALS; source: E. coli T7 Express lysY/Iq, purified (Ni-NTA, SEC); not shown: MAH6, N-terminal, kept
T4 sequence (looked up): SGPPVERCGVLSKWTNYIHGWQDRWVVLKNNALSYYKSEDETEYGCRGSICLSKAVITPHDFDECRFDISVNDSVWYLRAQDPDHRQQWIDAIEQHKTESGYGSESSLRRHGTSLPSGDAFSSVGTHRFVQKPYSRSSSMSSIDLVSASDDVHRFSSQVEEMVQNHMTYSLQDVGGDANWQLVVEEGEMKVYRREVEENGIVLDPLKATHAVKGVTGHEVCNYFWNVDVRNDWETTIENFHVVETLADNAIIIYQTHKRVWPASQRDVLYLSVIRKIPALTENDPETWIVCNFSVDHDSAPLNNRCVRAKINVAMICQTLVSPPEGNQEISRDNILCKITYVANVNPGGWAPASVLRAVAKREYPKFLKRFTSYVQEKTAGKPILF

Molecule | stoichiometry N [4] | dH (pUL21-H6) | stoichiometry N (pUL21-H6) | further results
CERTL (CERT, long isoform) (from UniProt Q9Y5P4) CERTL S132A (hypophosphorylated) |  |  |  | other: observed mass (expected trimer 215.7) [1]: same; reference 184.3
B1 |  |  |  | Kd [2]: 1080 nM and 554 nM and 684 nM; Kd [3]: 460 nM and 824 nM
B2 | ~3 | 3.89 kcal/mol | 0.74 | 
B3 | ~3 | 2.38 kcal/mol | 0.97 | 
B4 |  |  |  | Kd (H6-miniCERTL): 4320 nM
